In patent publication US20130149306A1, “Antagonists of Sema3E/PlexinD1 interaction as anti-cancer agents” (NETRIS PHARMA, priority 2010, published 2013):
Like-named read-outs stand apart in the source and are kept apart here.

How the values were obtained:
4T1 cells [1] = assay: Cell death/viability in cultures of 4T1 cells; format: cell-based, mouse
Experimental: (§1) Cell death/viability was determined by trypan blue dye exclusion, MTT cell viability assay, calcein assay, and anti-active caspase-3 immunoreactivity. In some experiments, cells were seeded in multiple 24-well plates (5×10^4 cells/well) for 24 h then transfected with different vectors using Lipofectamine Plus (Invitrogen): The different analysis occurred after 48 h (HEK-293T cells) or 72 h (4T1 cells) of serum starvation. In some experiments, cells were cultured in the presence of 10 μM caspase inhibitors: caspase-3 inhibitor II (Z-DEVD-FMK, 264155, VWR), caspase-8 inhibitor II (Z-IETD-FMK, 218759, VWR), and caspase-9 inhibitor II ([…], 218776, VWR).
(§2) For trypan blue exclusion experiments, total cells (adherent and floating) were collected by mechanical detachment and medium collection. Cells were pelleted by slow centrifugation and resuspended in serum-free medium. Trypan blue (0.4%) was added in a ratio of 1:1 to the cell suspension, and the percentage of cell death was measured in a hemacytometer by counting, in a blinded fashion and within a given volume, the number of blue (dead) cells and comparing this number to the total number of cells in this same volume.
For caspase staining, after immunostaining with anti-active caspase-3 antibody, the percentage of labelled cells was estimated by comparing the number of active caspase-3-stained cells with the total number of cells present on a given surface.
For assessing cell viability using calcein, cells were plated in OptiMEM medium in 96-well black plates (Greiner Bio-one, Courtaboeuf, France). After 3-6 days in culture, live cells were stained with 0.5 μg/ml green calcein-acetoxymethyl ester (Molecular Probes, Eugene, Oreg.) for 40 minutes at 37° C., and counted using a flash cytometer (Trophos, Marseille, France).
We next used an in vitro assay to evaluate whether SD1 is directly capable of triggering death of tumor cells. […] Similarly, 4T1-SD1 cells, which proliferate at the same rate as 4T1-mock cells during the first 24-48 h in culture, show increased death 72 h after plating, possibly as a result of SD1 accumulation in the culture medium (FIG. 14). […] Thus, SD1 triggers cancer cell death in a PlexinD1 dependent manner.

Sema3E = target: T1, Sema3E (Mus musculus, UniProt P70275); assay: Co-precipitation in transfected HEK293T cells (His-tagged Sema3E, Nickel resin); format: binding; conditions: myc-tagged SD1, AP-His-tagged Sema3E
T1 construct: expressed in transfected cells; host or cells: HEK293T
T1 sequence (P70275 26-775): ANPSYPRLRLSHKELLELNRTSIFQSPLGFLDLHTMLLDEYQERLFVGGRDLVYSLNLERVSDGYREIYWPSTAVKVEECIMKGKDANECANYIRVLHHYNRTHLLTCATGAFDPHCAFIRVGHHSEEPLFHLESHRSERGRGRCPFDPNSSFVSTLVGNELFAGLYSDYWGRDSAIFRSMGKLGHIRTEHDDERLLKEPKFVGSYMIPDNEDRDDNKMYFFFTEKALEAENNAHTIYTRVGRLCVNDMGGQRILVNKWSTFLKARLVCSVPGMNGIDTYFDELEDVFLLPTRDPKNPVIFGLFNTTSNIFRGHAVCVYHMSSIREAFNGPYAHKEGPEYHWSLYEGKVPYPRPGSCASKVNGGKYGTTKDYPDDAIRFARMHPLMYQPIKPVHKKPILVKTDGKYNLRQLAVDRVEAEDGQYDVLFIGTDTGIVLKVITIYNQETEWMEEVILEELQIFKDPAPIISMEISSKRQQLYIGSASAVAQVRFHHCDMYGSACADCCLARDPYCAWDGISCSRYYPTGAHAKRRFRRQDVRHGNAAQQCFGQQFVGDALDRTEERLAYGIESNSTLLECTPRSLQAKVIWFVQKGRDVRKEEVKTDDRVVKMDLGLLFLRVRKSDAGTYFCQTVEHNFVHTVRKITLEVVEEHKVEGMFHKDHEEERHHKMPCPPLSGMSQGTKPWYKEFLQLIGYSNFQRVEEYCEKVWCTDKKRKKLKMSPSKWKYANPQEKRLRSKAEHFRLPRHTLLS
From the text: (A) SD1 is composed of the immunoglobulin (Ig) k-chain secretion signal peptide, followed by the sema domain of mouse PlexinD1 protein (aa 61 to 531) fused in frame with six myc epitope tags (a.a: amino acid). (B) Co-precipitation experiments on HEK 293T cells transfected with the indicated combinations of myc-tagged SD1, Alkaline phosphatase(AP)-Histidine(His)-tagged Sema3E. SD1 can form a complex with Sema3E protein when His-tagged Sema3E is precipitated with a Nickel resin. (C) Displacement curve of Sema3E binding to PlexinD1-expressing HEK 293T cells by increasing concentrations of SD1 (from 1-12 nM). […] (D-G) Quantification of cell death induction by SD1 in cultures of 4T1 (D-E), MDA-MB-231 (F-G) and MCF-7 (F-G) cells measured by trypan blue exclusion (D and F) or by quantification of the percentage of cleaved Caspase-3 positive cells (E and G) in the absence or presence of exogenous Sema3E (100 ng/ml). SD1 is added as conditioned medium from transfected HEK 293T cells at increasing concentration (0 to 20 nM) (D) or fixed concentration (20 nM) (E-G).
HEK293T cells were transfected with AP-Sema3E-his and/or equal amounts of SD1 vectors. […] After incubation with HRP conjugated secondary antibodies, signals were detected with enhanced chemoluminescence system (GE Healthcare, RPN2132). […]

PlexinD1 = PlexinD1 (Homo sapiens, UniProt Q9Y4D7); assay: Co-precipitation in transfected HEK293T cells; format: binding; conditions: data not shown
Experimental: We first set up co-precipitation experiments in transfected HEK293T cells to investigate whether the SD1 interacted with Sema3E ligand. […] Next, we examined the displacement of Sema3E binding to Hek293T cells expressing PlexinD1 by different concentrations of SD1 (from 1-12 nM) present in conditioned medium of HEK293T cells transfected with the SD1 plasmid.

MDA-MB-231 cells = assay: Cell death/viability in cultures of MDA-MB-231 cells; format: cell-based, human
Experimental: as §1, §2
(§3) For assessing cell viability using calcein, cells were plated in OptiMEM medium in 96-well black plates (Greiner Bio-one, Courtaboeuf, France). […]

VEGFR2 = target: T2, VEGFR2 (Homo sapiens, UniProt P35968); assay: Co-precipitation in transfected HEK293T cells; format: binding; conditions: data not shown
T2 construct: expressed in transfected cells; host or cells: HEK293T

MCF-7 cells = assay: Cell death/viability in cultures of MCF-7 cells; format: cell-based, human
Experimental: as §1, §2, §3

4T1 cells [2] = conditions: for Reduction in the volume of the tumor: 4T1-SD1 vs 4T1-mock
Experimental: In vivo studies were conducted in 6-8 weeks old BALB/c ByJ female mice (Charles River Laboratories France). 4.5×10^5 4T1-mock or 4T1-SD1 cells were injected into the right posterior flank or into the mammary fad pad of anaesthetized animals. Tumor size was measured externally every two days using a calliper, and the width (A) and length (B) of the developing tumor was converted to volume using the equation V=0.52×A^2×B. Mice were sacrificed 27 days after injection or when the tumor volume was equal to 300 mm^3.
We next evaluated the effect of SD1 on tumor development and metastasic behavior in a syngenic breast cancer model in Balb/c mice, from which 4T1 cells were derived. In a first series of experiments, 4T1-SD1 or 4T1-mock cells were injected either subcutaneously or in their normal anatomical site, the mammary fat pad. The primary tumors formed from the injected cells were collected after 27 days.

Neuropilin-1 = target: T3, Neuropilin-1 (Homo sapiens, UniProt O14786); assay: Co-precipitation in transfected HEK293T cells; format: binding; conditions: data not shown
T3 construct: expressed in transfected cells; host or cells: HEK293T

[3] = 15 nM SD1 in conditioned medium, three days

Sequence of PlexinD1 (Q9Y4D7 47-1925, species assumed): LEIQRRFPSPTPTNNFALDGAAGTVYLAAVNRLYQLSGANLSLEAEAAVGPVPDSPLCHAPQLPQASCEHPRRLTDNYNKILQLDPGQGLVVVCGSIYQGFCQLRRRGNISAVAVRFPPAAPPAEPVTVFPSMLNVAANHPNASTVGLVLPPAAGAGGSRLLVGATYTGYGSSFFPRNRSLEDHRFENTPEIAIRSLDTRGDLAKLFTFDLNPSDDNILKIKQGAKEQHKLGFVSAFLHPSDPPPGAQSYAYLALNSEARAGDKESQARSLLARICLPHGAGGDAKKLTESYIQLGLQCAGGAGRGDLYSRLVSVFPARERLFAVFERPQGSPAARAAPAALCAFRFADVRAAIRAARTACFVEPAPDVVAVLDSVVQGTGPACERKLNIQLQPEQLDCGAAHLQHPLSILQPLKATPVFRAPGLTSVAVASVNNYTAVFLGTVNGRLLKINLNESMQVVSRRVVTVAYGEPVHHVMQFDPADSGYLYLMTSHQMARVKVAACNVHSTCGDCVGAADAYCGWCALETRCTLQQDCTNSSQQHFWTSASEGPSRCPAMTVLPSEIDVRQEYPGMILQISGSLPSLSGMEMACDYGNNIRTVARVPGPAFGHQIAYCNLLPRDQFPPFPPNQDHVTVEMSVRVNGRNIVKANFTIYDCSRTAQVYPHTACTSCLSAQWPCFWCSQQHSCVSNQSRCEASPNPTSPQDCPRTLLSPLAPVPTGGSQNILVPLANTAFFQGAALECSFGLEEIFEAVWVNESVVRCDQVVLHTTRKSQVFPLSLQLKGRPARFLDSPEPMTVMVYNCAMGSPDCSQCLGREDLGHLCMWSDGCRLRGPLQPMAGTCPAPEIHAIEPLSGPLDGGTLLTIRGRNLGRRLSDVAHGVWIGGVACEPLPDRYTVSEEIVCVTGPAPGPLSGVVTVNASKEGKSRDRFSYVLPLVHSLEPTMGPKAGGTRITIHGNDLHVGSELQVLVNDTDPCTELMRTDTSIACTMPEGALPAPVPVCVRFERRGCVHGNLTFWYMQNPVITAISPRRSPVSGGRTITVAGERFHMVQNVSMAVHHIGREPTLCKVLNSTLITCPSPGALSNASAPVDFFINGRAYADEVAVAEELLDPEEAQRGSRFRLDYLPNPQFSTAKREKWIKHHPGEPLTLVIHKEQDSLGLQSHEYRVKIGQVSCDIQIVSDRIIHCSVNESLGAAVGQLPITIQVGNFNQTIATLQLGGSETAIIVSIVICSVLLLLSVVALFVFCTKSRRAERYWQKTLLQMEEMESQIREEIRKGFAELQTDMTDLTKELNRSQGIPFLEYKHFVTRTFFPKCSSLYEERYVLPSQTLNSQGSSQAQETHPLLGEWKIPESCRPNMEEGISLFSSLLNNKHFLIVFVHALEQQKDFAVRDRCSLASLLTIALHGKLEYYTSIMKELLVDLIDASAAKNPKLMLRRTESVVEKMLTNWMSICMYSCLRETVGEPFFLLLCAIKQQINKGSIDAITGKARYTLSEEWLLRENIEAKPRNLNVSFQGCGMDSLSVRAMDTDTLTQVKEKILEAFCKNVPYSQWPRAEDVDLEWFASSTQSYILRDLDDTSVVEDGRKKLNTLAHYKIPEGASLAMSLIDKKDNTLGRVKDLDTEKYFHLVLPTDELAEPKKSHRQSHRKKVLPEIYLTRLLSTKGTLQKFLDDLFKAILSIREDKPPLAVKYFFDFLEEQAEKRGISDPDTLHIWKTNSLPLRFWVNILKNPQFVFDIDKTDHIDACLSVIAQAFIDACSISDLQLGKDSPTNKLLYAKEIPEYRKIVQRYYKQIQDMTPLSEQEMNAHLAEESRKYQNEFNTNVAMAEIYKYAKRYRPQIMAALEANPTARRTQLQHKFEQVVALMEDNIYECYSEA
T3 sequence (O14786 22-923, species assumed): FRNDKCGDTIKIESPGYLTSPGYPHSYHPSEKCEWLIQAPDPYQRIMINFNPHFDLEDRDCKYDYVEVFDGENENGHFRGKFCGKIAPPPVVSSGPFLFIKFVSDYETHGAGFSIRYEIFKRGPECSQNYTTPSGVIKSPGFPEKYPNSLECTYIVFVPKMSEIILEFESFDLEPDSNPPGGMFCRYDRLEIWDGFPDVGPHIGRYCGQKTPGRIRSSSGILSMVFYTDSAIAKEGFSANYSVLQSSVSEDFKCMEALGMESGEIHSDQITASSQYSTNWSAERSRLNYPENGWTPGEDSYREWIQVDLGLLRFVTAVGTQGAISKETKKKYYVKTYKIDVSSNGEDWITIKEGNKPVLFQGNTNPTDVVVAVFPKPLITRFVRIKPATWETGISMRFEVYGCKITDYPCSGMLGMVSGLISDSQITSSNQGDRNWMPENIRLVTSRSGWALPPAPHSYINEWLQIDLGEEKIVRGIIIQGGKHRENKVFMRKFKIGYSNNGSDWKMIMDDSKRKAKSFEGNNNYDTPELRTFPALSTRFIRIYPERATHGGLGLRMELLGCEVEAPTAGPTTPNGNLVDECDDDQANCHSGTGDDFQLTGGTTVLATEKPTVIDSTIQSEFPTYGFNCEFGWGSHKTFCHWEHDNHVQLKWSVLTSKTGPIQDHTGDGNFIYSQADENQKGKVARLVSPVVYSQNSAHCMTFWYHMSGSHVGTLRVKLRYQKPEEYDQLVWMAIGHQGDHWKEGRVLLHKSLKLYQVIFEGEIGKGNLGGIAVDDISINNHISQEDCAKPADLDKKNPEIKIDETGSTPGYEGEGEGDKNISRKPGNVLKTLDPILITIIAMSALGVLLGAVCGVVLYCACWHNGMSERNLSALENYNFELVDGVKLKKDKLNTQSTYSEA
T2 sequence (P35968 20-1356, species assumed): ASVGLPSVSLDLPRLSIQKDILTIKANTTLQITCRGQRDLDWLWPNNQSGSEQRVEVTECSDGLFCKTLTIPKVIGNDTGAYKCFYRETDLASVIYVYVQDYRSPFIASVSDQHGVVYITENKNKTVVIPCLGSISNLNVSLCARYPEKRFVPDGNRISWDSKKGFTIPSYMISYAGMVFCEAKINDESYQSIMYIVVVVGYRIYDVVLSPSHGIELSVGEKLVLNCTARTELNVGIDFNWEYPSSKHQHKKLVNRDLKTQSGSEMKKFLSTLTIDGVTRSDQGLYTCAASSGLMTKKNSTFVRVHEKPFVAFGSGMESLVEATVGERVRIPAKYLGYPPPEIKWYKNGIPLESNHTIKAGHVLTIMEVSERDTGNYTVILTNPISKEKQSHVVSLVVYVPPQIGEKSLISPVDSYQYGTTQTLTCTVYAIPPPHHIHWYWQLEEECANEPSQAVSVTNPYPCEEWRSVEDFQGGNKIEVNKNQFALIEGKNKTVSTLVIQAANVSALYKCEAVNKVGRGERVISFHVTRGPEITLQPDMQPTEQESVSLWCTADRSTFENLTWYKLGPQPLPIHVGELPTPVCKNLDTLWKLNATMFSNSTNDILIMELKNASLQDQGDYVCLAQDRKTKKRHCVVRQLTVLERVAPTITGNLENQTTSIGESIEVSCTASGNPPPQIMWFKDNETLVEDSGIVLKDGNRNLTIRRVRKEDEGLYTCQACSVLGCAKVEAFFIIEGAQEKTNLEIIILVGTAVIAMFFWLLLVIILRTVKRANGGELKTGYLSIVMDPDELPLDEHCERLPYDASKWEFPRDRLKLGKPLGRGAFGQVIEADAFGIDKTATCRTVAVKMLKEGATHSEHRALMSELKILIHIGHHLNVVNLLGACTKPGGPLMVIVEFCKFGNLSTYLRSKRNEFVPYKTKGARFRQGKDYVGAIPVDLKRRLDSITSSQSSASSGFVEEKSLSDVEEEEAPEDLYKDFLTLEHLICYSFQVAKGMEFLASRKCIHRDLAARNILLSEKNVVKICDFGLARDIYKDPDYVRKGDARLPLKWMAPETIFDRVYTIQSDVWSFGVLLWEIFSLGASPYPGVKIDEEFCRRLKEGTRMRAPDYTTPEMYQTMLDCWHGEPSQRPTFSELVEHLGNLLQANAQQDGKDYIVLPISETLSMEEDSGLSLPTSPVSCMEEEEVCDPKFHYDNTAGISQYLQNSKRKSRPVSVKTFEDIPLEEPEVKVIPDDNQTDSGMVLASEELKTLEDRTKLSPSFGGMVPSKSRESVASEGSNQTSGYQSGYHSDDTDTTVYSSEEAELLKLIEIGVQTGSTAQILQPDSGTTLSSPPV

B1: SD1: Ig k-chain secretion signal peptide, sema domain of mouse PlexinD1 protein (aa 61 to 531), fused with six myc epitope tags (protein)
chain: TNNFALDGTAGTVYLAAVNRLYQLSSANLSLEAEATVGPVPDSPLCHAPQLPQASCEHPRRLTDNYNKILQLDPGQGLVVACGSIYQGLCQLRRRGNISALAVSFPPAAPTAEPVTVFPSMLNVAANHPNASTVGLVLPPTSGTGGSRLLVGATYTGFGSAFFPRNRSLEDHRFENTPEIAIRSLDARGDLAKLFTFDLNPSDDNILKIKQGAKEQHKLGFVRAFLHPAVPPHSAQPYAYLALNSEARAGDKDSQARSLLARICLPRGAGGDAKKLTESYIQLGLQCAGGAGRGDLYSRLVSVFPAREQFFAVFERPQGAPGARNAPAALCAFRFDDVQAAIRAARTACFVEPAPDVVAVLDSVVQGTGPACESKRNIQLQPEQLDCGAAHLQHPLTILQPLRASPVFRAPGLTAVAVASANNYTAVFLGTATGRLLKISLNESMQVVSRRVLTVAYGEPVHHVMQFDPMD
modifications: left off: small tags and cut ends
Cell death (trypan blue exclusion, cleaved Caspase-3 positive cells) (4T1 cells [1]; SD1 conditioned medium, 0 to 20 nM or 20 nM): induces cell death
Viability, calcein assay (4T1 cells [1]; SD1 purified from conditioned medium): decreased viability
Cell death, trypan blue-exclusion (4T1 cells [1]; recombinant SD1 in conditioned medium): induces cell death
Interaction with Sema3E ligand (co-precipitation) (Sema3E): physically associated with Sema3E
Direct interaction with PlexinD1 (PlexinD1): did not directly interact
Cell survival, calcein assay (MDA-MB-231 cells; [3]): reduction in cell survival
Cell death (trypan blue exclusion, cleaved Caspase-3 positive cells) (MDA-MB-231 cells; SD1 conditioned medium 20 nM): induces cell death
Direct interaction with VEGFR2 (VEGFR2): did not directly interact
Cell survival, calcein assay (MCF-7 cells; [3]): reduction in cell survival
Cell death (trypan blue exclusion, cleaved Caspase-3 positive cells) (MCF-7 cells; SD1 conditioned medium 20 nM): induces cell death
Time until tumors reached an average volume of 300 mm^3 (4T1 cells [2]; 4T1-SD1, fat pad (4T1-mock: 31±3 dpi)): 50±6 dpi
Time until tumors reached an average volume of 300 mm^3 (4T1 cells [2]; 4T1-SD1, subcutaneous (4T1-mock: 46±4 dpi)): 60±3 dpi
Tumor cell proliferation (Ki67 immunostaining) (4T1 cells [2]; 4T1-SD1 vs 4T1-mock tumors): unchanged
Number of metastatic nodules at the surface of the lungs (4T1 cells [2]; 27 days, subcutaneous and fat pad transplantations, vs control cells): decrease
SD1-induced death of stromal cells in tumors (4T1 cells [2]; cleaved Caspase-3/-9 immunostaining): not susceptible
Decreased total tumor weight (4T1 cells [2]; fat pad injections, 27 days): 56%
Reduction in the volume of the tumor (4T1 cells [2]; mammary fat pad injection, 27 days): 56%
Reduction in the volume of the tumor (4T1 cells [2]; subcutaneous injection, 27 days): 60%
Decreased total tumor weight (4T1 cells [2]; subcutaneous injections, 27 days): 60%
Concentration of blood vessels in primary tumors (PECAM-1) (4T1 cells [2]; subcutaneous, 4T1-SD1 vs control tumors): did not significantly affect
Increase in tumor cell death (cleaved Caspase-3 or Caspase-9 positive 4T1 cells) in primary tumors (4T1 cells [2]; subcutaneous, 27 days, 4T1-SD1 vs control cells): ~3 fold
Average number of metastatic nodules per lung (4T1 cells [2]; tumors of similar size (300 mm^3), subcutaneous and fat pad): reduction
Direct interaction with Neuropilin-1 (Neuropilin-1): did not directly interact
